Source: article PMC11969553, “Expression of Human β3GalT5–1 in Insect Cells as Active Glycoforms for the Efficient Synthesis of Cancer-Associated Globo-Series Glycans” (Journal of the American Chemical Society, 2025)
Numbering of substitutions follows the chain as printed. Names and notes keep the numbering of the source.

T1: soluble β3GalT5-1 (insect) (Homo sapiens, UniProt Q9Y2C3)
T1 construct: gene B3GALT5; crystal: Phe31-Pro308 stated, Asp41-Pro308 visible
T1 sequence (Q9Y2C3 29-310): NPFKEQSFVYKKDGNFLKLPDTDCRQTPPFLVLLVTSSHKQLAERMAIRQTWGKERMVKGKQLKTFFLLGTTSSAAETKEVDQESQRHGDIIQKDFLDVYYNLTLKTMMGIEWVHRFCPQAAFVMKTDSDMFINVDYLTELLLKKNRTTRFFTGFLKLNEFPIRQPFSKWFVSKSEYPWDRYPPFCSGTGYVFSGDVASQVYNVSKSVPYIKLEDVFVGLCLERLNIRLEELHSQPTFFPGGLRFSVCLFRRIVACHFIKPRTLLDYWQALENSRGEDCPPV

T2: membrane-bound β3GalT5–2 (Homo sapiens, UniProt A0A0A0MS93)
T2 construct: gene B3GALT5; full length, 314 residues, C-terminal Flag tag, expressed in HEK293 cells, LMNG-extracted, anti-Flag purified
T2 sequence (A0A0A0MS93 1-314): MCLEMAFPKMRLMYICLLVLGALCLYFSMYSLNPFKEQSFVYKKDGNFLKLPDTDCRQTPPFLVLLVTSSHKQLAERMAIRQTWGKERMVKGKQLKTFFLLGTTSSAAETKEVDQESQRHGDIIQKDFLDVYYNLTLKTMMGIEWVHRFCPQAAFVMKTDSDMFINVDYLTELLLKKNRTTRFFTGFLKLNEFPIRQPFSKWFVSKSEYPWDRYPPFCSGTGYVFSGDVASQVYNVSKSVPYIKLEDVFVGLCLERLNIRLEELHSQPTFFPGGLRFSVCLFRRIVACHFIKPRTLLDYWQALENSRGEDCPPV

T3: membrane-bound β3GalT5–1 (Homo sapiens, UniProt Q9Y2C3)
T3 construct: gene B3GALT5; full length M1-V310, C-terminal Flag tag, expressed in HEK293 cells, LMNG-extracted, anti-Flag purified
T3 sequence (Q9Y2C3 1-310): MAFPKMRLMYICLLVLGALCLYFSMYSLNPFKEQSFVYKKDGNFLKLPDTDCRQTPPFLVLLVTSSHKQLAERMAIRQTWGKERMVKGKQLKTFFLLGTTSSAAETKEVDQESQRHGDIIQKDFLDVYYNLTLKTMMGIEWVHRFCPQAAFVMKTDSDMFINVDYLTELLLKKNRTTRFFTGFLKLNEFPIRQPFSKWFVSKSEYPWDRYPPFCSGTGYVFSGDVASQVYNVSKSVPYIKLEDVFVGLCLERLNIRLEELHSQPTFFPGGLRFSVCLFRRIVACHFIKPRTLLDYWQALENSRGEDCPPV

B1: β3GalT5–1 (soluble domain): PNGase F (protein)
parent chain: T3 sequence (Q9Y2C3 1-310)
B2: β3GalT5–1 (soluble domain): kifunensine then Endo-H (mono-GlcNAc) (protein)
parent chain: T3 sequence (Q9Y2C3 1-310)
B3: β3GalT5–1 (soluble domain): expression in HEK293 (complex-type glycoforms) (protein)
parent chain: T3 sequence (Q9Y2C3 1-310)
B4: β3GalT5–1 (soluble domain): kifunensine (high mannose glycoforms) (protein)
parent chain: T3 sequence (Q9Y2C3 1-310)
B5: soluble β3GalT5-1 (insect) (Homo sapiens) (protein)
chain: T1 sequence (Q9Y2C3 29-310)
notes: crystal: Phe31-Pro308 stated, Asp41-Pro308 visible
B6: soluble β3GalT5-1 (HEK293) (Homo sapiens) (protein)
chain: T1 sequence (Q9Y2C3 29-310)
notes: soluble luminal domain N29-V310, no TM; expressed in HEK293 cells, complex-type N-glycans
B7: soluble β3GalT5-1 (HEK293) (Homo sapiens; S66A) (protein)
chain: T1 sequence (Q9Y2C3 29-310) with S38A
notes: as for B6
B8: soluble β3GalT5-1 (HEK293) (Homo sapiens; Q69A/S66A) (protein)
chain: T1 sequence (Q9Y2C3 29-310) with S38A, Q41A
notes: as for B6
B9: soluble β3GalT5-1 (HEK293) (Homo sapiens; Q69A) (protein)
chain: T1 sequence (Q9Y2C3 29-310) with Q41A
notes: as for B6
B10: soluble β3GalT5-1 (HEK293) (Homo sapiens; Q69M) (protein)
chain: T1 sequence (Q9Y2C3 29-310) with Q41M
notes: as for B6
B11: soluble β3GalT5-1 (HEK293) (Homo sapiens; Q69M/S66A) (protein)
chain: T1 sequence (Q9Y2C3 29-310) with S38A, Q41M
notes: as for B6

How the values were obtained:
[1] = target: T1, soluble β3GalT5-1 (insect); test: X-ray crystal structure; type: binding; settings: acceptor site, Mn2+
[2] = target: T2, membrane-bound β3GalT5–2; test: galactosyltransferase activity; type: biochemical; settings: UDP-Gal, with or without 1% LMNG
[3] = target: T3, membrane-bound β3GalT5–1; test: galactosyltransferase activity; type: biochemical; settings: UDP-Gal, with or without 1% LMNG
[4] = galactosyltransferase activity assay (Figure S6E); settings: control: untreated Sf9-expressed enzyme (paucimannose glycoforms)
[5] = Michaelis–Menten kinetics by UDP release; settings: glycan changed form; control: Sf9 insect cell-expressed enzyme (paucimannose)
[6] = substrate: C=CCO[C@@H]1O[C@H](CO)[C@@H](O[C@@H]2O[C@H](CO)[C@H](O[C@H]3O[C@H](CO)[C@H](O)[C@H](O[C@@H]4O[C@H](CO)[C@H](O)[C@H](O)[C@H]4NC(C)=O)[C@H]3O)[C@H](O)[C@H]2O)[C@H](O)[C@H]1O; test: UDP release, Michaelis-Menten fit; type: biochemical, Homo sapiens; settings: 0.1 mM UDP-Gal, HEPES, 0.1 mM MnCl2, 0-4 mM substrate; pH 7.0
Description: UDP release, Michaelis-Menten fit on soluble β3GalT5-1 (insect)

[7] = substrate: O=c1ccn([C@@H]2O[C@H](COP(=O)(O)OP(=O)(O)O[C@H]3O[C@H](CO)[C@H](O)[C@H](O)[C@H]3O)[C@@H](O)[C@H]2O)c(=O)[nH]1; test: UDP release, Michaelis-Menten fit; type: biochemical, Homo sapiens; settings: 2 mM Gb4 glycan fixed, 20 mM HEPES pH 7.4, 0.1 mM MnCl2
Description: (§1) UDP release, Michaelis-Menten fit on soluble β3GalT5-1 (HEK293)

[8] = substrate: C=CCO[C@@H]1O[C@H](CO)[C@@H](O[C@@H]2O[C@H](CO)[C@H](O[C@H]3O[C@H](CO)[C@H](O)[C@H](O[C@@H]4O[C@H](CO)[C@H](O)[C@H](O)[C@H]4NC(C)=O)[C@H]3O)[C@H](O)[C@H]2O)[C@H](O)[C@H]1O; test: UDP release, Michaelis-Menten fit; type: biochemical, Homo sapiens; settings: 10 mM UDP-sugar (UDP-Gal) fixed, 20 mM HEPES pH 7.4, 0.1 mM MnCl2
Description: as §1

| Molecule | Km [7] | kcat [7] | kcat/Km [7] | Km [8] | kcat [8] | kcat/Km [8] | other results |
| --- | --- | --- | --- | --- | --- | --- | --- |
| CC(=O)N[C@H]1[C@H](O[C@H]2[C@@H](O)[C@@H](CO)O[C@H](O[C@@H]3[C@H](O)[C@@H](O)[C@H](O[C@H]4[C@H](O)[C@@H](O)C(O)O[C@@H]4CO)O[C@@H]3CO)[C@@H]2O)O[C@H](CO)[C@H](O)[C@@H]1O (stereo partly shown) [Gb4 glycan] | – | – | – | – | – | – | X-ray crystal structure [1]: the acceptor substrate Gb4 glycan is represented by pink sticks; galactosyltransferase activity [2]: regardless of whether Gb4 or Gb4 glycan was used as a substrate; galactosyltransferase activity [3]: regardless of whether Gb4 or Gb4 glycan was used as a substrate |
| B1 | – | – | – | – | – | – | enzymatic_activity, fold_change ([4]; glycan lost): decreases |
| B2 | – | – | – | – | – | – | enzymatic_activity, fold_change ([4]; glycan lost): increases |
| B3 | – | – | – | – | – | – | enzymatic_activity, kcat_Km [5]: no change, 5.2 ± 3.0 vs 5.3 ± 1.0 |
| B4 | – | – | – | – | – | – | enzymatic_activity, fold_change ([4]; glycan changed form): increases |
| B5 | – | – | – | – | – | – | Km [6]: 0.66 ± 0.4 mM; kcat [6]: 0.0583 ± 0.00667 s⁻¹; kcat/Km [6]: 88.3 ± 16.7 M⁻¹ s⁻¹ |
| B6 | 0.14 ± 0.04 mM | 0.125 ± 0.0117 s⁻¹ | 870 ± 293 M⁻¹ s⁻¹ | 1.40 ± 0.2 mM | 0.0448 ± 0.00333 s⁻¹ | 32 ± 16.7 M⁻¹ s⁻¹ | – |
| B7 | 0.35 ± 0.1 mM | 0.276 ± 0.0417 s⁻¹ | 781 ± 408 M⁻¹ s⁻¹ | 1.20 ± 0.2 mM | 0.0777 ± 0.005 s⁻¹ | 64.8 ± 31.7 M⁻¹ s⁻¹ | – |
| B8 | 0.32 ± 0.09 mM | 0.0273 ± 0.00333 s⁻¹ | 156 ± 45 M⁻¹ s⁻¹ | 1.11 ± 0.3 mM | 0.00783 ± 0.000833 s⁻¹ | 7 ± 3.33 M⁻¹ s⁻¹ | – |
| B9 | 0.30 ± 0.05 mM | 0.0497 ± 0.00333 s⁻¹ | 165 ± 63.3 M⁻¹ s⁻¹ | 1.21 ± 0.3 mM | 0.012 ± 0.00117 s⁻¹ | 10 ± 3.33 M⁻¹ s⁻¹ | – |
| B10 | 0.21 ± 0.05 mM | 0.0585 ± 0.005 s⁻¹ | 282 ± 103 M⁻¹ s⁻¹ | 0.42 ± 0.3 mM | 0.0107 ± 0.00167 s⁻¹ | 25.3 ± 8.33 M⁻¹ s⁻¹ | – |
| B11 | 0.27 ± 0.06 mM | 0.0773 ± 0.00667 s⁻¹ | 284 ± 113 M⁻¹ s⁻¹ | 1.65 ± 0.4 mM | 0.0248 ± 0.00167 s⁻¹ | 15 ± 6.67 M⁻¹ s⁻¹ | – |
